Our source for the stoichiometry N values is PMC10424185, “C-2 Thiophenyl Tryptophan Trimers Inhibit Cellular Entry of SARS-CoV-2 through Interaction with the Viral Spike (S) Protein” (Journal of Medicinal Chemistry, 2023).

As usually defined, the stoichiometry N is a count of units in the complex or per binding partner.

The assay has as its target S:D614G protein (SARS-CoV-2 spike with the D614G mutation, form used for cryoEM) (SARS-CoV-2 | not stated). Description: cryo-EM structure.

“S:D614G protein (SARS-CoV-2 spike with the D614G mutation, form used for cryoEM)” came in with a stoichiometry N of 3.
